# In PMC5723433, “Identification and characterization of a novel zebrafish (Danio rerio) pentraxin–carbonic anhydrase” (PeerJ, 2017):
# B1: human carbonic anhydrase VI (CA VI) (enzyme, UniProt P23280-1 18-308, looked up)
# chain: QHVSDWTYSEGALDEAHWPQHYPACGGQRQSPINLQRTKVRYNPSLKGLNMTGYETQAGEFPMVNNGHTVQISLPSTMRMTVADGTVYIAQQMHFHWGGASSEISGSEHTVDGIRHVIEIHIVHYNSKYKSYDIAQDAPDGLAVLAAFVEVKNYPENTYYSNFISHLANIKYPGQRTTLTGLDVQDMLPRNLQHYYTYHGSLTTPPCTENVHWFVLADFVKLSRTQVWKLENSLLDHRNKTIHNDYRRTQPLNHRVVESNFPNQEYTLGSEFQFYLHKIEEILDYLRRALN
# notes: carbonic anhydrase VI, human; Only an unpublished preliminary result is told (A. Yrjänäinen, 2017); also called human CA VI; gustin
# Legend:
# [1] = molecular target: zebrafish (Danio rerio) carbonic anhydrase VI-pentraxin (CA VI–PTX), recombinant (zebrafish (Danio rerio)); assay: SEC + other: static and dynamic light scattering (LC-SLS-DLS); 50 ug protein injected on Superdex 200 5/150 in 50 mM NaH3PO4, 500 mM NaCl pH 8, 0.1 ml/min, 20 °C; MW from standard proteins (SEC) and from light-scattering intensity calibrated on monomeric BSA (SLS); Rh from DLS
# [2] = molecular target: the molecule itself; assay: not stated; unpublished data, preliminary result; protein in solution
Molecule,stoichiometry N [1],stoichiometry N [2]
"zebrafish (Danio rerio) carbonic anhydrase VI-pentraxin (CA VI–PTX), recombinant (enzyme)",5,
B1,,2
